T1: Dic3, ODA intermediate chain (Tetrahymena thermophila, UniProt Q23FU1 1-670)
T1 sequence (looked up): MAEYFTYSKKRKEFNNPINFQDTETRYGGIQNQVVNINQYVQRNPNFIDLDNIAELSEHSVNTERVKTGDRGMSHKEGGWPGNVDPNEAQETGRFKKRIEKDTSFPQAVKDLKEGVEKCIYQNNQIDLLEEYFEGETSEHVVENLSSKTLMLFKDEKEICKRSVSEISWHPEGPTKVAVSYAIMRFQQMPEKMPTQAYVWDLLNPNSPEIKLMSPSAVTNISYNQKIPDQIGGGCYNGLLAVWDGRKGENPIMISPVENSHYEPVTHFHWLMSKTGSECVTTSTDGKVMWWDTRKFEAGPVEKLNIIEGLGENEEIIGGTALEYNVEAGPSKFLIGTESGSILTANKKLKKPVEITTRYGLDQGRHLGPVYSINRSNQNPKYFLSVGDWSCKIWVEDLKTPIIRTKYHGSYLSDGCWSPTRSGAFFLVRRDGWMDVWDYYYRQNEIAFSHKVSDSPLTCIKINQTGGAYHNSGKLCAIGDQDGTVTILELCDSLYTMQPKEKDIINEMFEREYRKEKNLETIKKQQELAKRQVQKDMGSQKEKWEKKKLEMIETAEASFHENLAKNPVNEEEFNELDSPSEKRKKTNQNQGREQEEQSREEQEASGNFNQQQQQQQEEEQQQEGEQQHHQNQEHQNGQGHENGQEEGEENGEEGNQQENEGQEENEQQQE

T2: Shulin (Q22YU3), recombinant full-length, C-terminal 2xStrep (Tetrahymena thermophila, UniProt Q22YU3 1-1200)
T2 sequence (looked up): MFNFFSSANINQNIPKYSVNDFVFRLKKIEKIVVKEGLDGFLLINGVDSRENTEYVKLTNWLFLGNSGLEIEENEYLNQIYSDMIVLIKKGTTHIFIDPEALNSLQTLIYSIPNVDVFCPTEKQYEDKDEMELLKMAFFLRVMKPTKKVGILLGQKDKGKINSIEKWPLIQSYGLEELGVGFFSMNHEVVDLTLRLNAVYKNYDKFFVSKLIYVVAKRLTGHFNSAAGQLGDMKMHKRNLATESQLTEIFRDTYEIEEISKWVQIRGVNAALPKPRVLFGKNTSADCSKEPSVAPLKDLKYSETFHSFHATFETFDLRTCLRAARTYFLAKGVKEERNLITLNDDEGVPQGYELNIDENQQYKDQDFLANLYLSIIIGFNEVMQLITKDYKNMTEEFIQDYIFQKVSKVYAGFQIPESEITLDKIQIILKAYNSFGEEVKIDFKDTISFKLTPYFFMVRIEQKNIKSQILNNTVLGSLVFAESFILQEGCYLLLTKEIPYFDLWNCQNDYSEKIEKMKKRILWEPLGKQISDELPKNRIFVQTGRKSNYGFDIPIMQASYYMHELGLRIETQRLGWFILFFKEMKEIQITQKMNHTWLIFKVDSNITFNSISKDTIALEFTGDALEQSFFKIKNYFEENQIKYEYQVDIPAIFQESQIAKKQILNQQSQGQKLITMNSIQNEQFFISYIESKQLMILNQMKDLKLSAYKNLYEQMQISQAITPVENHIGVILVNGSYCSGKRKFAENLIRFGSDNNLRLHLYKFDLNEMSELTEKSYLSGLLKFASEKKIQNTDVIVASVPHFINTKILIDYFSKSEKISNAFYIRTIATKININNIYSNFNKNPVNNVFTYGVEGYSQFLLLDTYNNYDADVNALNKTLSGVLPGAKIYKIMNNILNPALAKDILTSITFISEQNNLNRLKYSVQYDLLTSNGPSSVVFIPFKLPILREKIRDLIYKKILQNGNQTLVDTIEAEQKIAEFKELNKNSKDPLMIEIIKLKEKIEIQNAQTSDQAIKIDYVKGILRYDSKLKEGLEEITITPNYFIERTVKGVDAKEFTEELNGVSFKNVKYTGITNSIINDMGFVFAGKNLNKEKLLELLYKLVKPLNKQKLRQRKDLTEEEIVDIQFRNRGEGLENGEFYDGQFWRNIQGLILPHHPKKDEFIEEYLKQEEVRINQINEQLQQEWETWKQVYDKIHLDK

B1: Lc8, ODA light chain (natural protein, Tetrahymena thermophila, UniProt W7XJB1 1-111, looked up)
chain: MSDSDSDEGRVVEEPLPPHIIRFNDMAQHLLKKVIRQADVLIKENPQGLEKDIALNLVKFVKSQPEFKIGDGEWQCIIGKNFGCSLTFDANVLAFFDLLPSRKSILLFKSG
B2: Lc8e, ODA light chain (natural protein, Tetrahymena thermophila, UniProt Q24DI9 1-93, looked up)
chain: MGDHANEQIIDMPENSEMKSMKNDAFSQAKFAVENYKFENKISSHIKKFFDEKYGPNWHCVVGKHFNAYVSYDSKNFIFFYEGQLAILLYRKG
B3: Dic2, ODA intermediate chain (natural protein, Tetrahymena thermophila, UniProt I7M008 1-667, looked up)
chain: MPPKQTKVVASRKTVMPISRAGRAQIRRKDSNTQNNMNDQGMEDEEIDQQREGMKNQYEQLTAQELNEDMPSKMLEPKNPQAPKNITVYDYYTRKFKTDELVDQMIVHFSMDGDYIWKESNEYKTQEEIRDTKKALIKEAMRKQESEEPGANHDEEAIKQTLRNKFNYNTRECQTINPSIRERGVSTEPPPSDTICGNITQWEIFDAYYAEIMKDHQIENKKKKEVDQDKKQDQSMYSTSFKRCCKIMERMVVQNDQEDKYHDYRYYWSQGDNLEAGKNEGHLLPIWRFSNEKQRKKNVTSICWNPLYPDLFAVSLGSYDFTKQRMGLICLYSLKNTTHPEYAFNCEAGVMCLDFHPKSAALLAVGLYDGTVLVYDIRNKHKKPIYQSTVRNQKHTDPVWQVKWNPDTSKNYNFYSISSDGRVMNWILMKNKLEPEEVILLRLVGKNEEESTLIGLACGLCFDFNKFEPHIFLVGTEEGKIHKCSRAYSGQYQETYNGHLLAVYKVKWNNFHPRTFISASADWTVRIWDSKYTSQIICFDLSMMVVDAVWAPYSSTVFACATMDKVQVYDLNVDKLNKLAEQKIVKQPKLTNLSFNYKDPILLVGDSHGGVTLVKLSPNLCKSGPEIKQTEDKKAMEEFKNVKIEDYEREKMENLLAVVSKWEREDA
B4: Lc8d, ODA light chain (natural protein, Tetrahymena thermophila, UniProt Q24CE5 1-87, looked up)
chain: MNHEPEVKATDMEEDMIKRVKEIAINAVKEYKQEKQIAHYIKYEFDKIDGYGWNCIVGRNFGSHIIHQTKKYIFFKINELCLLLWKA
B5: Lc9, Tctex-like ODA light chain (natural protein, Tetrahymena thermophila, UniProt A4VEB3 1-117, looked up)
chain: MGDTDKEYISEEVQKAIDDSVKQVFGIKDDSSQVTITYNKDKVNLWTQQIIDYTIRGLNKLGKHFKYCVTAILQQTNHAGISVQITAYQDTNTDGSLIQCYEINDIYAIVSVFAMAV
B6: Lc8f (unnamed Lc8-like protein, UniProt ID Q22R86), ODA light chain (natural protein, Tetrahymena thermophila, UniProt Q22R86 1-111, looked up)
chain: MASNQQQKEDPKEQQQQYKTFMGARVLWPPECADDILEGAIRETQDALKKFEIAREGQKIAEHLKKYMDDHFDPYWHVFFGKNFGCQAVHNKNRFIYFYIEKTAFLMYQTQ
B7: Lc7, roadblock ODA light chain (natural protein, Tetrahymena thermophila, UniProt I7MHB1 1-133, looked up)
chain: MAQDINADDQLKQLSALEGANGYVIFNESGIPLKRHEKSISHEKAVHIAALVSDLWNVSKKVIQRDLKTPENDIEVIRLRTKHSYEYIITQSGDFTMLAIQLCGKAIEEAKKAAAAAAAAAVVQEENKEKEKK
B8: Lc7b, roadblock ODA light chain (natural protein, Tetrahymena thermophila, UniProt Q22MV2 1-159, looked up)
chain: MIYKTSKEIQKSDQRIIQQRVENSIINNQIYQKSLKRKTSKRKVRHQANKKNFQKEMSEVEDTLNRIKTHKTVLGYLIVNSEGGVVRGAFKDEEESKNIANSIPLLTKKARSVVRDLDPTNDLVFLRIQTKLNEIMVAPDDEFSLIVIQTKGEKRDEND

Columns and labels:
Experiment in all cases: cryo-EM structure
[1] = target: B3
[2] = target: T1, Dic3, ODA intermediate chain
[3] = target: T2, Shulin (Q22YU3), recombinant …
[4] = target: B8

binding result [1] | binding result [2] | binding result [3] | binding result [4] | Binder
binds | binds | – | – | B1
binds | binds | binds | – | B2
– | – | binds | – | B3
binds | binds | binds | – | B4
binds | binds | – | – | B5
binds | binds | – | – | B6
binds | binds | – | binds | B7
binds | binds | – | – | B8

Source: article PMC7116892 (Science (New York, N.Y.), 2021)
